Data from the supplement of paper PMC9112550, “Optimization of the antimicrobial peptide Bac7 by deep mutational scanning” (BMC Biology, 2022).

test system: Escherichia coli TOP10; assay: shrunken log2 fold change of peptide-encoding DNA abundance (4.5 h post-induction vs induction); higher = less antimicrobial activity (less host growth inhibition); conditions: time post-induction: 4.5 h; library: site-saturation at positions 5, 18, 19, 20
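Further: peptides expressed intracellularly from a pBAD plasmid library in pooled LB shake-flask culture, induced with 0.3% L-arabinose, DNA abundance read by NGS, three biological replicates, DESeq2 with apeglm shrinkage.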

Row | Sequence | shrunken log2 fold change
1 | RRIRCRPPRLPRPRPRPSALPRP | -0.0403
2 | RRIRGRPPRLPRPRPRPMGHPRP | 0.202
3 | RRIRCRPPRLPRPRPRPAMYPRP | -0.265
4 | RRIRPRPPRLPRPRPRPSAIPRP | -0.32
5 | RRIRCRPPRLPRPRPRPRRSPRP | 0.762
6 | RRIRKRPPRLPRPRPRPLFIPRP | -0.291
7 | RRIRYRPPRLPRPRPRPRKQPRP | -0.129
8 | RRIRTRPPRLPRPRPRPWDSPRP | -0.00804
9 | RRIRIRPPRLPRPRPRPNEMPRP | -0.0277
10 | RRIRKRPPRLPRPRPRPEKEPRP | 0.139
11 | RRIRQRPPRLPRPRPRPEKLPRP | -0.12
12 | RRIRSRPPRLPRPRPRPDNWPRP | -0.39
13 | RRIRYRPPRLPRPRPRPGWRPRP | 0.386
14 | RRIRARPPRLPRPRPRPGKMPRP | -0.0572
15 | RRIRGRPPRLPRPRPRPPLQPRP | 0.641
16 | RRIRIRPPRLPRPRPRPCAYPRP | -0.0396
17 | RRIRFRPPRLPRPRPRPREEPRP | -0.0431
18 | RRIRMRPPRLPRPRPRPAKGPRP | 0.271
19 | RRIRCRPPRLPRPRPRPSNDPRP | -0.451
20 | RRIRYRPPRLPRPRPRPINEPRP | -0.181
21 | RRIRTRPPRLPRPRPRPKEIPRP | -1.03
22 | RRIRPRPPRLPRPRPRPKASPRP | 0.105
23 | RRIRARPPRLPRPRPRPCVFPRP | 0.39
24 | RRIRSRPPRLPRPRPRPIMWPRP | -0.109
25 | RRIRWRPPRLPRPRPRPFYPPRP | -0.239

Row | Sequence | shrunken log2 fold change
26 | RRIRQRPPRLPRPRPRPSANPRP | 0.0611
27 | RRIRYRPPRLPRPRPRPEAMPRP | -0.0891
28 | RRIRCRPPRLPRPRPRPQAWPRP | -0.23
29 | RRIRRRPPRLPRPRPRPATIPRP | -0.0623
30 | RRIRLRPPRLPRPRPRPTQGPRP | 0.852
31 | RRIRNRPPRLPRPRPRPAFMPRP | 0.0417
32 | RRIRMRPPRLPRPRPRPNELPRP | 0.0804
33 | RRIRYRPPRLPRPRPRPAEHPRP | -0.0954
34 | RRIRGRPPRLPRPRPRPAFWPRP | 0.71
35 | RRIRLRPPRLPRPRPRPSITPRP | -0.436
36 | RRIRARPPRLPRPRPRPMFKPRP | -0.106
37 | RRIRYRPPRLPRPRPRPLTPPRP | 0.0282
38 | RRIRLRPPRLPRPRPRPCVKPRP | 0.00159
39 | RRIRIRPPRLPRPRPRPMPTPRP | 0.316
40 | RRIRVRPPRLPRPRPRPMKIPRP | -0.232
41 | RRIRKRPPRLPRPRPRPVHKPRP | 0.288
42 | RRIRQRPPRLPRPRPRPSWCPRP | -0.141
43 | RRIRFRPPRLPRPRPRPFKYPRP | -1.26
44 | RRIRLRPPRLPRPRPRPSQSPRP | -0.511
45 | RRIRKRPPRLPRPRPRPGNGPRP | 0.351
46 | RRIRDRPPRLPRPRPRPDDSPRP | -0.0417
47 | RRIRDRPPRLPRPRPRPAGEPRP | 0.0114
48 | RRIRMRPPRLPRPRPRPLIRPRP | -0.373
49 | RRIRQRPPRLPRPRPRPDVKPRP | -0.0135
50 | RRIRSRPPRLPRPRPRPTDMPRP | 0.0156

Row | Sequence | shrunken log2 fold change
51 | RRIRHRPPRLPRPRPRPHVDPRP | 0.0392
52 | RRIRERPPRLPRPRPRPGDKPRP | -0.315
53 | RRIRNRPPRLPRPRPRPRGNPRP | 0.26
54 | RRIRERPPRLPRPRPRPECVPRP | 0.162
55 | RRIRNRPPRLPRPRPRPSSWPRP | 0.0908
56 | RRIRNRPPRLPRPRPRPGSWPRP | 0.257
57 | RRIRKRPPRLPRPRPRPIKVPRP | -0.386
58 | RRIRARPPRLPRPRPRPKARPRP | 1.16
59 | RRIRTRPPRLPRPRPRPKWCPRP | 0.00669
60 | RRIRDRPPRLPRPRPRPSKVPRP | -0.152
61 | RRIRCRPPRLPRPRPRPLACPRP | -0.236
62 | RRIRIRPPRLPRPRPRPSFPPRP | -0.779
63 | RRIRNRPPRLPRPRPRPCHWPRP | 0.065
64 | RRIRCRPPRLPRPRPRPFEDPRP | -0.019
65 | RRIRVRPPRLPRPRPRPCMVPRP | -0.614
66 | RRIRGRPPRLPRPRPRPCCYPRP | 0.786
67 | RRIRWRPPRLPRPRPRPRMHPRP | 0.485
68 | RRIRKRPPRLPRPRPRPDFKPRP | -0.0323
69 | RRIRMRPPRLPRPRPRPWFFPRP | -0.0229
70 | RRIRIRPPRLPRPRPRPDGQPRP | -0.0297
71 | RRIRTRPPRLPRPRPRPTRIPRP | -0.204
72 | RRIRERPPRLPRPRPRPKGPPRP | 0.0237
73 | RRIRTRPPRLPRPRPRPWKMPRP | -0.0793
74 | RRIRERPPRLPRPRPRPEKSPRP | -0.14
75 | RRIRSRPPRLPRPRPRPPRWPRP | 0.722
